Columns and labels:
[1] = test system: cholesterol ester hydrolase; experiment: Rate of hydrolysis of cholesteryl ester in cholesterol-laden J774 cells (cholesterol ester hydrolase activity); type: cell-based, murine; settings: lipoproteins or protein liposomes; tissue culture
Description: Identification of the domain of SAA2.1 that is responsible for enhancing cholesterol ester hydrolase activity was performed in J774 cells preloaded with radio-labeled cholesteryl esters. These experiments were performed in the presence of Sandoz 58-035, an inhibitor of acyl CoA:cholesterol acyl transferase activity, to prevent re-esterification of liberated cholesterol and [^14C]oleate. Incubations proceeded for times ranging from 0 to 24 hours, following which the remaining quantities of [^14C]-labeled cholesteryl oleate in cells were measured to determine the rate of hydrolysis of cholesteryl ester. […] However, an equivalent amount of liposomes containing the synthetic peptide corresponding to amino acid residues 74-103 of murine SAA2.1 caused a 3-fold increase in cholesterol ester hydrolase activity in these cholesterol-laden murine cells. Newly confluent J774 cells were labeled with [^14C]-oleate during cholesterol loading with red blood cell membranes as described above. Cells were then incubated for up to 24 hours with 2 mL of DMEM containing 5% LPDS and 50 μg/mL of either native HDL, SAA-HDL, liposomes containing 2 μmoles of apoA-1, SAA1.1 or 2.1, or liposomes containing 0.5:mol synthetic peptides corresponding to amino acid residues 1-20 (SEQ ID NO:1), 21-50 (SEQ ID NO:2), 51-80 (SEQ ID NO:3) and 74-103 (SEQ ID NO:4) of murine SAA2.1. To determine the rate of cholesteryl ester hydrolysis, 2 μg/mL of the acyl CoA:cholesterol acyl transferase inhibitor Sandoz 58-035 (propanimide, 3-(decyldimethylsilyl)-N-[2-(4-methylphenyl)-1-phenylethyl]-(9Cl) was added during incubation with lipoproteins or liposomes to prevent […] and free cholesterol. To examine whether or not the rate of cholesteryl ester hydrolysis involved the lysosomal cholesteryl ester hydrolase, the cells were cultured in the presence of 50 μg/mL of either native HDL and chloroquine or SAA-HDL and chloroquine (100:M). Chloroquine is an agent that neutralizes the lysosomal proton gradient. At various time points, cellular lipids were extracted and analyzed for cholesteryl ester radioactivity as described above.

[2] = molecular target: T1, acyl CoA:cholesterol acyl transferase (Mus musculus, UniProt Q61263); experiment: Incorporation of [14C]oleate into cholesteryl ester in cholesterol-laden macrophages (ACAT activity); type: cell-based, murine; settings: lipoproteins or protein liposomes; tissue culture
T1 construct: host or cells: J774 mouse macrophages, cholesterol-loaded
T1 sequence (Q61263 1-540): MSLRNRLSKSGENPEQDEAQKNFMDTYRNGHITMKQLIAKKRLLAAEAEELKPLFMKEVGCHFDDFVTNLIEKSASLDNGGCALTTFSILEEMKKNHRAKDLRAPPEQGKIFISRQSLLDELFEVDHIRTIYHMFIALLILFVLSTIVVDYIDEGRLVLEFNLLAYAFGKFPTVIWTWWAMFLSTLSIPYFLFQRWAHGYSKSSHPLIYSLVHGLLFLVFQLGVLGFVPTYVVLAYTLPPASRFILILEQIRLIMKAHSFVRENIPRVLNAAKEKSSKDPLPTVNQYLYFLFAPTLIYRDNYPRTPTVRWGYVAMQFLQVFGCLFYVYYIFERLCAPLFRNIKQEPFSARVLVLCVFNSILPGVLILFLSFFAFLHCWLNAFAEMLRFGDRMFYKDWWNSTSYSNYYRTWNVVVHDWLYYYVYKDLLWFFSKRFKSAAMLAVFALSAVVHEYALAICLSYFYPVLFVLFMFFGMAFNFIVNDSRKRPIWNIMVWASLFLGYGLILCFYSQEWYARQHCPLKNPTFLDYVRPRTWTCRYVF
Description: The incorporation of [^14C]oleate into cholesteryl ester was used as a measure of acyl CoA:cholesterol acyl transferase activity to identify compositions inhibiting the enzyme activity. The relative acyl CoA:cholesterol acyl transferase activity was determined in cholesterol-laden murine cells that had been cultured in medium in the absence of liposomes or in the presence of protein-free liposomes or liposomes containing 0.5 μM synthetic peptides corresponding to amino acids 1-20, 21-50, 51-80 and 74-103 of murine SAA2.1.
To load the cells with cholesterol, nearly confluent mono-layers were washed 3 times with phosphate buffered saline containing 2 mg/mL fatty acid-free bovine serum albumin (PBS-BSA) and incubated for 5 hours in DMEM supplemented with 5% lipoprotein-depleted serum (LPDS) (d>1.25 g/mL) and 175 μg of red blood cell membrane cholesterol. For the purpose of pool equilibration of added cholesterol, cell cultures were rinsed twice with PBS-BSA and incubated overnight in DMEM containing 5% LPDS. The relative activity of acyl CoA:cholesterol acyl transferase was determined in cholesterol-laden cells that had been cultured in medium containing no liposomes, protein-free liposomes or liposomes containing 0.5:M synthetic peptides corresponding to amino acid residues 1-20 (SEQ ID NO:1), 21-50 (SEQ ID NO:2), 51-80 (SEQ ID NO:3) or 74-103 (SEQ ID NO:4) of murine SAA2.1, respectively. Following 3 hours incubation with the above media, [^14C]-oleate was added and the cells were incubated for another 3 hour period (Mendez et al. J. Clin. Invest. 1994 94:1698-1705; Oram et al. Arterioscler. Thromb. 1991 11:403-414). Cells were chilled on ice and washed twice with PBS-BSA and twice with PBS. After addition of [^3H]-cholesteryl oleate (6000 dpm/well) as an internal standard, the lipids were extracted from the labeled cells and analyzed by thin-layer chromatography as described by Mendez et al. (J. Clin. Invest. 1994 94:1698-1705) and Oram et al. (Arterioscler. Thromb. 1991 11:403-414). The radioactivity in appropriate spots was measured to determine the incorporation of radioactivity into cholesteryl esters as a measure of acyl CoA:cholesterol acyl transferase activity.

J774 macrophages [3] = experiment: Cholesterol efflux from cholesterol-laden J774 macrophages to apolipoprotein liposomes with 8-bromo-cAMP or methyl-β-cyclodextrin; type: cell-based, mouse
Excerpt: The export process of cholesterol is coupled to the ATP binding cassette transporter (ABCA1) pathway. Lipid efflux to apolipoproteins has been shown previously to be stimulated by treatment of murine macrophages with cAMP analogues (Lin et al. 2002 Biochem Biophys Res. Commun. 290:663-669; Oram et al. 2000 J. Biol. Chem. 275:34508-34511). Also, the expression of ABCA1 is induced by cAMP treatment (Lin et al. 2002 Biochem Biophys Res. Commun. 290:663-669; Oram et al. 2000 J. Biol. Chem. 275:34508-34511). The inventors herein examined the effect of 8-bromo-cAMP (0.3 mM) on cholesterol efflux by liposomes containing various apolipoproteins when incubated with cholesterol-laden J774 macrophages. Such cells were pre-labeled with [^3H]-cholesterol in the presence of Sandoz 58-035, an ACAT inhibitor, to ensure that all of the radiolabeled cholesterol released from the cells was derived from the un-esterified cholesterol pool, and the cells were treated for 12 hours with 8-bromo-cAMP. This was followed by incubation with various acceptors. The fractional release of cellular labeled cholesterol was determined as a function of time.
To investigate whether an apolipoprotein free cholesterol acceptor such as cyclodextrin has the ability to catalyze the removal of cholesterol from macrophages, cholesterol-loaded and labeled J774 cells were incubated with liposomes and methyl-β-cyclodextrin (0.1 mM) (CD).
To examine whether cholesterol export from J774 cells to medium containing liposomes containing 2 μM murine apoA-1, SAA1.1 or SAA2.1 is a cAMP-dependent process, the radio-labeled cholesterol-laden cells were incubated overnight with 8-Br-cAMP (0.3 mM), prior to the addition of liposomes containing 2 μM murine apoA-1, SAA1.1 or SAA2.1 to the culture medium. Cholesterol efflux to the medium was then determined at the indicated time points as described above. Efflux of radioactive label to the medium was calculated as a percentage of total counts in each well.

[4] = molecular target: T1, acyl CoA:cholesterol acyl transferase; experiment: ACAT activity in macrophage post-nuclear homogenates; type: biochemical, murine; settings: macrophage post-nuclear homogenates as enzyme source
Excerpt: The in vitro effects of acute phase-HDL (AP-HDL;HDL-SAA) on acyl CoA:cholesterol acyl transferase and cholesterol ester hydrolase activities and on cellular cholesterol export were studied by the inventors using purified enzymes, cell homogenates, and whole cells. […] In contrast, murine SAA1.1 and apoA-1 had no effect. […] Using macrophages preloaded with radio-labeled cholesterol and injected intravenously into either inflamed or un-inflamed mice, it was shown that the inflamed mice, which have high SAA2.1 levels, effluxed cholesterol more rapidly and to a greater extent (6-fold greater) than their un-inflamed counterparts.

J774 macrophages [5] = settings: Tam et al. 2002; cited from earlier work

B1: GFFSFIGEAFQGAGDMWRAYTDMKEAGWKDGDKYFHARGNYDAAQRGPGGVWAAEKISD ARESFQEFFGRGHEDTMADQEANRHGRSGKDPNYYRPPGLPAKY (protein, listed as Mus musculis)
chain: GFFSFIGEAFQGAGDMWRAYTDMKEAGWKDGDKYFHARGNYDAAQRGPGGVWAAEKISDARESFQEFFGRGHEDTMADQEANRHGRSGKDPNYYRPPGLPAKY
notes: full length murine serum amyloid A isoform 1.1
[1]
  cholesterol ester hydrolase activity in intact cholesterol-laden macrophages: no effect on enzyme activities
[2]
  acyl CoA:cholesterol acyl transferase activity in intact cholesterol-laden macrophages: no effect on enzyme activities
J774 macrophages [3]; 8-bromo-cAMP 0.3 mM
  stimulation of cholesterol efflux to liposomes with or without cAMP pre-treatment: No stimulation of efflux
J774 macrophages [3]; methyl-β-cyclodextrin 0.1 mM plus liposomes
  increase in the initial rate of cholesterol efflux with CD treatment: not
[4]
  acyl CoA:cholesterol acyl transferase activity: had no effect
J774 macrophages [5]
  promotion of cholesterol efflux from cholesterol-laden macrophages compared to protein-free liposomes: not any more effective than protein-free liposomes

— patent publication US8703698B2, “Compositions and methods for treating atherosclerosis” (The University of Chicago, priority 2003, dated 2014)
